For three molecules, Kd and EC50 results are on record in patent US20090203595A1 (ZENSUN SHANGHAI SCIENCE AND TECHNOLOGY, published 2009).

The target of assay [1] is T1, ErbB2&ErbB3 co-expressed on COS7 cells (UniProt P04626 23-1255; P21860 20-1342, limits assumed).
T1 construct: whole, on cells; Both receptors are co-expressed on the same cells, and the numbers are for these cells, not for a single receptor; also called COS7 cells (ErbB2&ErbB3 co-expression)
The experiment in a line: receptor binding affinity assay on COS7 cells co-expressing ErbB2&ErbB3. The method, then:
(§1) To study the receptor binding affinity of neuregulin and its mutations, ErbB2&ErbB3 or ErbB2&ErbB4 co-expressing COS7 are used. The cells are grown to 80% confluence. In the afternoon, after the cells reach 80% confluence, the media is changed to serum free media. Then, after 24 hours, the cells are harvested for receptor binding affinity assays.

Assay [2] concerns the target T2, ErbB2&ErbB4 co-expressed on COS7 cells (UniProt P04626 23-1255; Q15303 26-1308, limits assumed).
T2 construct: whole, on cells; Both receptors are co-expressed on the same cells, and the numbers are for these cells, not for a single receptor; also called COS7 cells (ErbB2&ErbB4 co-expression)
The experiment in a line: receptor binding affinity assay on COS7 cells co-expressing ErbB2&ErbB4. The method, then: as §1

The target of assay [3] is T1, ErbB2&ErbB3 co-expressed on COS7 cells. The experiment in a line: competition of bound radiolabeled ligands on COS7 cells co-expressing ErbB2&ErbB3. The method, then:
as §1

For assay [4], the target named is T2, ErbB2&ErbB4 co-expressed on COS7 cells. The experiment in a line: competition of bound radiolabeled ligands on COS7 cells co-expressing ErbB2&ErbB4. The method, then: as §1

B1: neuregulin (the 177-237 amino acids fragment of neuregulin1 β2) (ligand)
chain: SHLVKCAEKEKTFCVNGGECFMVKDLSNPSRYLCKCPNEFTGDRCQNYVMASFYKAEELYQ
notes: also called NRG; NRG-1β
Broadly, the Kd is the equilibrium constant for the complex coming apart. Broadly, the EC50 is the concentration needed to bring the measured effect to its halfway point. Higher therefore signals a less potent agent. As to B1, the dissociation constant (Kd) in assay [1] worked out at 1.41 nM; in assay [2] it was 0.282 nM. Also, the EC50 in assay [3] stood at 113 nM; in assay [4], 132 nM.

B2: neuregulin variant L3A (ligand)
chain: SHAVKCAEKEKTFCVNGGECFMVKDLSNPSRYLCKCPNEFTGDRCQNYVMASFYKAEELYQ
On to B2, for which the dissociation constant (Kd) in assay [1] amounted to 1.15 nM; in assay [2], 1.06 nM.

B3: neuregulin variant D43A (ligand)
chain: SHLVKCAEKEKTFCVNGGECFMVKDLSNPSRYLCKCPNEFTGARCQNYVMASFYKAEELYQ
Take B3: the EC50 in assay [3] amounted to 149 nM; in assay [4], 40.7 nM.
